These results are taken from IntAct's records for PubMed 16763556.

B1: DNA polymerase iota (Homo sapiens), Q9UNA4 (parent)
chain: MEKLGVEPEEEGGGDDDEEDAEAWAMELADVGAAASSQGVHDQVLPTPNASSRVIVHVDLDCFYAQVEMISNPELKDKPLGVQQKYLVVTCNYEARKLGVKKLMNVRDAKEKCPQLVLVNGEDLTRYREMSYKVTELLEEFSPVVERLGFDENFVDLTEMVEKRLQQLQSDELSAVTVSGHVYNNQSINLLDVLHIRLLVGSQIAAEMREAMYNQLGLTGCAGVASNKLLAKLVSGVFKPNQQTVLLPESCQHLIHSLNHIKEIPGIGYKTAKCLEALGINSVRDLQTFSPKILEKELGISVAQRIQKLSFGEDNSPVILSGPPQSFSEEDSFKKCSSEVEAKNKIEELLASLLNRVCQDGRKPHTVRLIIRRYSSEKHYGRESRQCPIPSHVIQKLGTGNYDVMTPMVDILMKLFRNMVNVKMPFHLTLLSVCFCNLKALNTAKKGLIDYYLMPSLSTTSRSGKHSFKMKDTHMEDFPKDKETNRDFLPSGRIESTRTRESPLDTTNFSKEKDINEFPLCSLPEGVDQEVFKQLPVDIQEEILSGKSREKFQGKGSVSCPLHASRGVLSFFSKKQMQDIPINPRDHLSSSKQVSSVSPCEPGTSGFNSSSSSYMSSQKDYSYYLDNRLKDERISQGPKEPQGFHFTNSNPAVSAFHSFPNLQSEQLFSRNHTTDSHKQTVATDSHEGLTENREPDSVDEKITFPSDIDPQVFYELPEAVQKELLAEWKRAGSDFHIGHK
B2: DNA polymerase eta (Homo sapiens), Q9Y253 (parent)
chain: MATGQDRVVALVDMDCFFVQVEQRQNPHLRNKPCAVVQYKSWKGGGIIAVSYEARAFGVTRSMWADDAKKLCPDLLLAQVRESRGKANLTKYREASVEVMEIMSRFAVIERASIDEAYVDLTSAVQERLQKLQGQPISADLLPSTYIEGLPQGPTTAEETVQKEGMRKQGLFQWLDSLQIDNLTSPDLQLTVGAVIVEEMRAAIERETGFQCSAGISHNKVLAKLACGLNKPNRQTLVSHGSVPQLFSQMPIRKIRSLGGKLGASVIEILGIEYMGELTQFTESQLQSHFGEKNGSWLYAMCRGIEHDPVKPRQLPKTIGCSKNFPGKTALATREQVQWWLLQLAQELEERLTKDRNDNDRVATQLVVSIRVQGDKRLSSLRRCCALTRYDAHKMSHDAFTVIKNCNTSGIQTEWSPPLTMLFLCATKFSASAPSSSTDITSFLSSDPSSLPKVPVTSSEAKTQGSGPAVTATKKATTSLESFFQKAAERQKVKEASLSSLTAPTQAPMSNSPSKPSLPFQTSQSTGTEPFFKQKSLLLKQKQLNNSSVSSPQQNPWSNCKALPNSLPTEYPGCVPVCEGVSKLEESSKATPAEMDLAHNSQSMHASSASKSVLEVTQKATPNPSLLAAEDQVPCEKCGSLVPVWDMPEHMDYHFALELQKSFLQPHSSNPQVVSAVSHQGKRNPKSPLACTNKRPRPEGMQTLESFFKPLTH

In the first assay the parent is B1. The settings on record: with ubc_human UBC.
In the case of P717R, the “effect of a mutation on the interaction” value is “decreasing interaction strength”.

The next assay covers variants of B2. The following applies: with ubc_human UBC.
H654A: the “effect of a mutation on the interaction” value is on record as “disrupting interaction”.
